According to PMC10026069, “Retinal–Carotenoid Interactions in a Sodium-Ion-Pumping Rhodopsin: Implications on Oligomerization and Thermal Stability” (The Journal of Physical Chemistry. B, 2023):
Several values for one entry are separate records, joined by “and”; a condition that tells them apart may be missing. Equal entries are not always repeated.

Legend:
[1] = target: Nonlabens (Donghaeana) dokdonensis rhodopsin (DDR2) (Nonlabens (Donghaeana) dokdonensis); assay: SEC; AKTA FPLC; DDM-solubilised DDR2 at pH 7 or 9; apparent masses from soluble protein markers; 0.06% DDM, 300 mM NaCl; also run with salinixanthin bound (oligomeric form not affected)
[2] = target: T1, DDR2 (Nonlabens (Donghaeana) dokdonensis rhodopsin, sodium-ion-pumping rhodopsin) (Nonlabens dokdonensis, UniProt A0ABX5Q1D8); assay: absorption spectroscopy of the pigment; assay type: binding; settings: covalent, protonated Schiff base to lysine; pH 8, room temperature
T1 construct: gene LX97_00829; pentamer at neutral pH
T1 sequence (A0ABX5Q1D8 1-279): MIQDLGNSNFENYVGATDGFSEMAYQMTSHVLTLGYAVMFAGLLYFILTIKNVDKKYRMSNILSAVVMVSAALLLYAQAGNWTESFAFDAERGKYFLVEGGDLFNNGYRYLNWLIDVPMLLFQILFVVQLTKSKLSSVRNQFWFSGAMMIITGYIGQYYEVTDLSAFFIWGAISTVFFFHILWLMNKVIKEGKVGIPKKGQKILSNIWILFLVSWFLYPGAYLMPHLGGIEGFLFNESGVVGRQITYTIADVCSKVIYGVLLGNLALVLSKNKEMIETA

stoichiometry N [1] | Molecule | absorption spectroscopy of the pigment [2]
5 and 10 | Nonlabens (Donghaeana) dokdonensis rhodopsin (DDR2) (natural protein) | 
 | CC1=C(/C=C/C(C)=C/C=C/C(C)=C/C=O)C(C)(C)CCC1 [all-trans retinal] | absorption of the all-trans retinal chromophore covalently bound to the protein
